According to the nanobody polyreactivity screen of Harvey et al. (2022):

Assay: yeast display, Sf9 membrane polyspecificity reagent, FACS + sequencing; frameworks hold sequencing errors
How it was run: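 A nanobody's polyreactivity label depends on the gate it was sorted from. Yeast display cells were stained with 10% biotinylated, detergent-solubilized Sf9 membrane reagent for 1 hour at 4 °C, enriched on streptavidin microbeads and sorted by FACS. The low and high (top ~1%) gates were set on anti-HA fluorescence for expression and streptavidin fluorescence for reagent binding.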

| Sequence | polyreactivity (PSR sort gate) |
| --- | --- |
| QVQLVESGGGLVQAGGSLRISCAASGFIFRRYAMGWYRQAPGKERELVAAIRTNSGSTYYADSVKGRFTISRDNAKNTVYLQMNSLKPEDTAVYYCATGQVYRTVSWLYNYWGQGTQVTVSS | high polyreactivity |
| QVQLVESGGGLVQAGGSLRISCAASGFIFTLYAMGWYRQAPGKERELVAAISKRGGSTNYADSVKGRFTISRDNAKNTVYLLMNSLKPEDTAVYYCANARPGFLYDHWGQGTQLTVSS | high polyreactivity |
| QVQLVESGGGLVQAGGSLRISCAASGFIFVFYDRGWYRQAPGKEREFVAGITRNDGSTYYADSVKGRFKISRDNAKNTVYLQMNSLKPEDTAVYYCAAADSTWFDWGNYWYYYWGQGTQVTVSS | low polyreactivity |
| QVQLVESGGGLVQAGGSLRISCAASGFIFYYAMGWYRQAPGKERELVAAISSGSSTYADSVKGRFTISRDNAKNTVYLQMNSMKPEDTAVYYCAAKTQNAYYWGQGTQVTVSS | low polyreactivity |
| QVQLVESGGGLVQAGGSLRISCAASGFTFAYYAMGRYRQAPGKERELVASITSGGSTYYADSVKGRFTISRDNAKNNVYLQMNSLKPEDTAVYYCAADSSIDYDWGQGTQVTVSS | high polyreactivity |
| QVQLVESGGGLVQAGGSLRISCAASGFTFRSYVMGWYRQAAGKEWELVAAISSRGSSTSYADSVKGRFTISRDNAKNTVYLQMNSLKPEDTAVYDCAPRLFWRGRKFAYWGQGTQVTVSS | high polyreactivity |
| QVQLVESGGGLVQAGGSLRISCAASGFTFRWYTMGWYRQAPGKERELVAAISWSGTSTYYADSVKGRFTISRDNAKNTVYLQMNSLKPEDTAVYYCAAADFYYTGADDYWGQGTQVTVSS | high polyreactivity |
| QVQLVESGGGLVQAGGSLRISCAASGFTFSRNVMGWYRQAPGKERELVADITLSGASTYYADSVKGRFTISRDNAKNTVYLQMNSLNPEDTAGYYCAADPYLWRWGWRHDYWGQGTQVTVSS | low polyreactivity |
| QVQLVESGGGLVQAGGSLRISCAASGFTFTYYTMGWYRQAPGKERELVAAINRSGTSTYYADSVKGRFTISRDNAKNTVYLQMNSLKPEDTAVYYCAAKFTTGYYYGVPRDYWGQGTQVTVSS | high polyreactivity |
| QVQLVESGGGLVQAGGSLRISCAASGFTFYNYAMGWYRQAPGKRELVAAITSGGRTNYADSVKGRFTISRDNAKNTVYLQMNSRIPEDTAVYYCNAYPRWKFRSQVYDGWYGRFDYWGQGTQVTVSS | high polyreactivity |
| QVQLVESGGGLVQAGGSLRISCAASGGIFDTYVMGWYRQAPGKERELVAAISSSGSTTYADSVKGRFTISRDNAKNTVYLQMNSLKPEDTAVYYCNADYSTIWRYDYWGQGTQVTVSS | low polyreactivity |
| QVQLVESGGGLVQAGGSLRISCAASGGNFRYYTMGWYRQAPGKERELVAAITRGGRTYYADSVKGRFTISRDNAKNTVYIQMNSLKPEDTAVYYCAAVRPRSPVSYENDYWGQGTQVTVSS | high polyreactivity |
| QVQLVESGGGLVQAGGSLRISCAASGGTFTKNAMGWYRQAPGKERELLAAISWRGTSTYYADSVKGRFTISRDNAKNTVYLQMNSLKPEDTAVYYCNTDRYFRRYYWYDYWGQGTQVTVSS | high polyreactivity |
| QVQLVESGGGLVQAGGSLRISCAASGIIFKQNVMGWYRQAPGKERELVAAITSRDGSTYYADSVKGRFTISRDNAKNTVYLQMNSLKPEDTAVYYCAANWRSPRYYLYGYWGQGTQVTVSS | high polyreactivity |
| QVQLVESGGGLVQAGGSLRISCAASGIIFPYAMGWYRQAPGKERELVARITVGSTSYADSVKGRFTISRDNAKNTVYVQMNSLKPEDTAVYYCNKDSGEDDRWPYDYWGQGTQVTVSS | low polyreactivity |
| QVQLVESGGGLVQAGGSLRISCAASGIIFPYYVMGWYRQAPGKERELVAAINSGGRTYYADSVKGRFTISRDNAKNTVYLQMNSLKPEDTAVYYCARDLYYVYSFAPYRYEYWGQGTQVTVSS | low polyreactivity |

| Sequence | polyreactivity (PSR sort gate) |
| --- | --- |
| QVQLVESGGGLVQAGGSLRISCAASGIIFRGNAMGWYRQAPGKERELVAAISSGGGTYYADSVKGRLTISRDNAKNTVYLQMNSLKPEDTAVYYCNRVRYYQYGYDYWGQGTEVTVSS | high polyreactivity |
| QVQLVESGGGLVQAGGSLRISCAASGITFPYYAMGWYRQAPGKERELVADITSGGSTNYADSVKGRFTISRDNAKNTVYLQMNSLKPEDTAVYYCAADWYVIYDYWGQGTQVTVSS | low polyreactivity |
| QVQLVESGGGLVQAGGSLRISCAASGITFRYYAMGWSIQAPGKERELVAAITCNGGGTYADSVKGRFTISRDNAKYTVYLEMNSLKPEDTAVYSCSADYGRRWGYDYWGQGTQVTVSS | low polyreactivity |
| QVQLVESGGGLVQAGGSLRISCAASGITFWYYAMGWYRQAPGKERELVAAITRSGRTNYADSVKGRFTISRDNAKNTVYLQMNSLKPEDTAVYYCNAASLRYSYTLFDSWGLGTQVTVSS | high polyreactivity |
| QVQLVESGGGLVQAGGSLRISCAASGITLNVYAMGWYRQAPGKERELVAAISYNGGRTYYADSVKGRFTISRDNAKNTVYLQMNSLKPEDTAVYYCAAQWPWGPYDYWGQGTQVTVSS | high polyreactivity |
| QVQLVESGGGLVQAGGSLRISCAASGITLYNYPMGWYRQAPGKERELVAAISLSGGRTYYAESVKGRFTISRDNAKNTVYLQMNSLQTEDTAVYYCAADWLNSDPYNYWGQGTQVTVSS | low polyreactivity |
| QVQLVESGGGLVQAGGSLRISCAASGLILIVYAMGWYRQAPGKERELVAAISSGGITYYADSVKGRFTISRDNAKNTVYLQMNSLKPEDTAVYYCAAESAYWWGDYYYWGQGTQVTVSS | high polyreactivity |
| QVQLVESGGGLVQAGGSLRISCAASGNAMGWYRQAPGKERELVAVITGGGSTYYADSVKGRFTISRDNAKNTVYLQMNSLKPEDTAVYYCAAKGPYYKSSRTGDYWGQGTQVTVSS | low polyreactivity |
| QVQLVESGGGLVQAGGSLRISCAASGNILFSYAMGWYRQAPGKERELVAAISRSGGSTYYADSVKGRFTISRDNAKNTVYLQMNSLKPEDTAVYYCNTYSIAYYSPGYDYWGQGTQVTVSS | high polyreactivity |
| QVQLVESGGGLVQAGGSLRISCAASGNSFVSNVMGWYREAPGKERELVAAISSGGRTYYADSVKGRFTISRDNAKNTVYLQMNSLKPEDTAVYYCAASYKSKYLGGGEYWGQGTQVTLSS | high polyreactivity |
| QVQLVESGGGLVQAGGSLRISCAASGNTFTRNTMGWYRQAPGKERELVASISLSGASTYYADSVKGRFTISRDNAKNTVYLQMNSLKPEDTAVYYCAARSRQDLEYDYWGQGTQVTVSS | high polyreactivity |
| QVQLVESGGGLVQAGGSLRISCAASGRIFATNAMGWYRQAPGKERELVAVITGGGDTNYADSVKGRFTISRDNAKNTVYLQMNSLKPEDTAVYYCAAEGSFYRYHVGSDYWGQGTQVTVSS | low polyreactivity |
| QVQLVESGGGLVQAGGSLRISCAASGRIFERNAMRWYRQAPGKERELVAAITYNGGRTYYADSVKGRFTISRDNAKITVYLQMNSLKPEDTAVYNCNAQSRVTRSSYRGSPRYDFWGQGTQVTVSS | high polyreactivity |
| QVQLVESGGGLVQAGGSLRISCAASGRIFFTNAMGWYRQAPGKDRELVAAISKSGARTYYADSVKGRFTISRDNAKNTVYLQMNSLKPEDTAVYYCSEFYYWGQGTQVTVSS | high polyreactivity |
| QVQLVESGGGLVQAGGSLRISCAASGRIFHGNARGWYRPAPGKERELVAAITSGGRTFYADSVKGRFTISRDNAKNTVYLQLHSLKPEDTAVYYCNAPSIAGYAEYNSHDYWGHGTQVTVSS | high polyreactivity |
| QVQLVESGGGLVQAGGSLRISCAASGRIFRGNALGWYRQAPGTERELVAAITRSGGSTYYADSVKGRFTISRDNAKNTVYLQMNSLKPEDTAVYYCAAGYPYYSYLYDYWGQGTQVSVSS | high polyreactivity |
